For this data set, the target named is human APP (695 amino acid isoform), P05067.

B1: human ADAMTS4 (A disintegrin and metalloproteinase with thrombospondin motifs 4) (protein)
chain: FASLSRFVETLVVADDKMAAFHGAGLKRYLLTVMAAAAKAFKHPSIRNPVSLVVTRLVILGSGEEGPQVGPSAAQTLRSFCAWQRGLNTPEDSDPDHFDTAILFTRQDLCGVSTCDTLGMADVGTVCDPARSCAIVEDDGLQSAFTAAHELGHVFNMLHDNSKPCISLNGPLSTSRHVMAPVMAHVDPEEPWSPCSARFITDFLDNGYGHCLLDKPEAPLHLPVTFPGKDYDADRQCQLTFGPDSRHCPQLPPPCAALWCSGHLNGHAMCQTKHSPWADGTPCGPAQACMGGRCLHMDQLQDFNIPQAGGWGPWGPWGDCSRTCGGGVQFSSRDCTRPVPRNGGKYCEGRRTRFRSCNTEDCPTGSALTFREEQCAAYNHRTDLFKSFPGPMDWVPRYTGVAPQDQCKLTCQARALGYYYVLEPRVVDGTPCSPDSSSVCVQGRCIHAGCDRIIGSKKKFDKCMVCGGDGSGCSKQSGSFRKFRYGYNNVVTIPAGATHILVRQQGNAGHRSIYLALKLPDGSYALNGEYTLMPSPTDVVLPGAVSLRYSGATAASETLSGHGPLAQPLTLQVLVAGNPQDTRLRYSFFVPRPTPSTPRPTPQDWLHRRAQILEILRRRPWAGRK
For the protein B1, the “production amounts of APP669-711 (Aβ(-3-40)) and APP669-709 (Aβ(-3-38)) in culture supernatant (IP-MS), ADAMTS4 vector:empty vector 10:1 in APP stable HEK” value is “tended to be rather slightly increased”.

(Values after patent US20220326223.)
